T1: TNC III1-5 (human, UniProt P24821 622-1074)
T1 construct: The secreted protein in the assays lacks the leader; also called TG-TNC III1-5; engineered TNC III1-5
T1 sequence: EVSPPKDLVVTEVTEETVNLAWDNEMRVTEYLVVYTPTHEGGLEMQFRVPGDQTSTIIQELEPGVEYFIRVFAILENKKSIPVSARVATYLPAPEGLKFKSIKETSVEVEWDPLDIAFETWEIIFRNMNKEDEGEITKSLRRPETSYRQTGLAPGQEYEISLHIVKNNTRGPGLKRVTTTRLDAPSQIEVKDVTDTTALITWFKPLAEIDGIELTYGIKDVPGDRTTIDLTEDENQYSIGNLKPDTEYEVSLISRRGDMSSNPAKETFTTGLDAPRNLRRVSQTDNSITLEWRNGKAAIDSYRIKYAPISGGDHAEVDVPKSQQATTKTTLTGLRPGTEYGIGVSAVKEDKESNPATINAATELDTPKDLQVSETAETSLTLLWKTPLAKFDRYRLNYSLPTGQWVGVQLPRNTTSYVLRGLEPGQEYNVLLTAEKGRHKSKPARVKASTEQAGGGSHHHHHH

T2: PlGF-1 (UniProt P49763-2 19-149)
T2 sequence (looked up): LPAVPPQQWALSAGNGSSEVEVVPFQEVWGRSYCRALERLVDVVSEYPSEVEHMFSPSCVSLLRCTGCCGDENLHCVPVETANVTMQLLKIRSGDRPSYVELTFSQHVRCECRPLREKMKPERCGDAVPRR

B1: FGF-18 (ligand, UniProt O76093 28-207, looked up)
chain: EENVDFRIHVENQTRARDDVSRKQLRLYQLYSRTSGKHIQVLGRRISARGEDGDKYAQLLVETDTFGSQVRIKGKETEFYLCMNRKGKLVGKPDGTSKECVFIEKVLENNYTALMSAKYSGWYVGFTKKGRPRKGPKTRENQQDVHFMKRYPKGQPELQKPFKYTTVTKRSRRIRPTHPA
B2: TGF-β3 (ligand)
chain: ALDTNYCFRNLEENCCVRPLYIDFRQDLGWKWVHEPKGYYANFCSGPCPYLRSADTTHSTVLGLYNTLNPEASASPCCVPQDLEPLTILYYVGRTPKVEQLSNMVVKSCKCS
modifications: Natural form is a disulfide-linked homodimer; one protomer is given.
B3: BMP-2 (ligand, UniProt P12643 283-396, looked up)
chain: QAKHKQRKRLKSSCKRHPLYVDFSDVGWNDWIVAPPGYHAFYCHGECPFPLADHLNSTNHAIVQTLVNSVNSKIPKACCVPTELSAISMLYLDENEKVVLKNYQDMVVEGCGCR
B4: BDNF (ligand, UniProt P23560 129-247, looked up)
chain: HSDPARRGELSVCDSISEWVTAADKKTAVDMSGGTVTVLEKVPVSKGQLKQYFYETKCNPMGYTKEGCRGIDKRHWNSQCRTTQSYVRALTMDSKKRIGWRFIRIDTSCVCTLTIKRGR
notes: also called brain-derived neurotrophic factor
B5: TNC III5 fused to GST (other, human, UniProt P24821 991-1074, looked up)
chain: LQVSETAETSLTLLWKTPLAKFDRYRLNYSLPTGQWVGVQLPRNTTSYVLRGLEPGQEYNVLLTAEKGRHKSKPARVKASTEQA
notes: domain: TNC III5; also called domain TNC III5; not shown: GST
B6: FGF-10 (ligand, UniProt O15520 38-208, looked up)
chain: QALGQDMVSPEATNSSSSSFSSPSSAGRHVRSYNHLQGDVRWRKLFSFTKYFLKIEKNGKVSGTKKENCPYSILEITSVEIGVVAVKAINSNYYLAMNKKGKLYGSKEFNNDCKLKERIEENGYNTYASFNWQHNGRQMYVALNGKGAPRRGQKTRRKNTSAHFLPMVVHS
B7: TGF-β2 (ligand, UniProt P61812 303-414, looked up)
chain: ALDAAYCFRNVQDNCCLRPLYIDFKRDLGWKWIHEPKGYNANFCAGACPYLWSSDTQHSRVLSLYNTINPEASASPCCVSQDLEPLTILYYIGKTPKIEQLSNMIVKSCKCS
B8: PlGF-2 (ligand, UniProt P49763-3 19-170, looked up)
chain: LPAVPPQQWALSAGNGSSEVEVVPFQEVWGRSYCRALERLVDVVSEYPSEVEHMFSPSCVSLLRCTGCCGDENLHCVPVETANVTMQLLKIRSGDRPSYVELTFSQHVRCECRPLREKMKPERRRPKGRGKRRREKQRPTDCHLCGDAVPRR
B9: TNC III3 (other, human, UniProt P24821 805-894, looked up)
GST fusion: APSQIEVKDVTDTTALITWFKPLAEIDGIELTYGIKDVPGDRTTIDLTEDENQYSIGNLKPDTEYEVSLISRRGDMSSNPAKETFTTGLD
notes: domain fragment; also called TNC III3 fused to GST
B10: VEGF-C (ligand, UniProt P49767 112-227, looked up)
chain: AHYNTEILKSIDNEWRKTQCMPREVCIDVGKEFGVATNTFFKPPCVSVYRCGGCCNSEGLQCMNTSTSYLSKTLFEITVPLSQGPKPVTISFANHTSCRCMSKLDVYRQVHSIIRR
B11: EGF (ligand)
chain: NSDSECPLSHDGYCLHDGVCMYIEALDKYACNCVVGYIGERCQYRDLKWWELR
B12: FGF-17 (ligand, UniProt O60258 23-216, looked up)
chain: TQGENHPSPNFNQYVRDQGAMTDQLSRRQIREYQLYSRTSGKHVQVTGRRISATAEDGNKFAKLIVETDTFGSRVRIKGAESEKYICMNKRGKLIGKPSGKSKDCVFTEIVLENNYTAFQNARHEGWFMAFTRQGRPRQASRSRQNQREAHFIKRLYQGQLPFPNHAEKQKQFEFVGSAPTRRTKRTRRPQPLT
B13: FGF-7 (ligand, UniProt P21781 32-194, looked up)
chain: CNDMTPEQMATNVNCSSPERHTRSYDYMEGGDIRVRRLFCRTQWYLRIDKRGKVKGTQEMKNNYNIMEIRTVAVGIVAIKGVESEFYLAMNKEGKLYAKKECNEDCNFKELILENHYNTYASAKWTHNGGEMFVALNQKGIPVRGKKTKKEQKTAHFLPMAIT
B14: TNC III4 (other, human, UniProt P24821 895-990, looked up)
GST fusion: APRNLRRVSQTDNSITLEWRNGKAAIDSYRIKYAPISGGDHAEVDVPKSQQATTKTTLTGLRPGTEYGIGVSAVKEDKESNPATINAATELDTPKD
notes: domain fragment; also called TNC III4 fused to GST
B15: FGF-6 (ligand, UniProt P10767 38-208, looked up)
chain: SPAGTRANNTLLDSRGWGTLLSRSRAGLAGEIAGVNWESGYLVGIKRQRRLYCNVGIGFHLQVLPDGRISGTHEENPYSLLEISTVERGVVSLFGVRSALFVAMNSKGRLYATPSFQEECKFRETLLPNNYNAYESDLYQGTYIALSKYGRVKRGSKVSPIMTVTHFLPRI
B16: Fg β1-66 (other)
fibrinogen Bβ chain fragment: QGVNDNEEGFFSARGHRPLDKKREEAPSLRPAPPPISGGGYRARPAKAAATQKKVERKAPDAGGCG
notes: production not given
B17: FGF-20 (ligand)
chain: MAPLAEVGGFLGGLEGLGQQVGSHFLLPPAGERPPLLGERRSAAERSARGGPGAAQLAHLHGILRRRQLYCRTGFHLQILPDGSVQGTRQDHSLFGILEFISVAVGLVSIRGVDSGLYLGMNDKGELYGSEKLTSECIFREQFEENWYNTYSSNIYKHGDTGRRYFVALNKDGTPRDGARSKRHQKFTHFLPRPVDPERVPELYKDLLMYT
B18: FGF-4 (ligand, UniProt P08620 31-206, looked up)
chain: APTAPNGTLEAELERRWESLVALSLARLPVAAQPKEAAVQSGAGDYLLGIKRLRRLYCNVGIGFHLQALPDGRIGGAHADTRDSLLELSPVERGVVSIFGVASRFFVAMSSKGKLYGSPFFTDECTFKEILLPNNYNAYESYKYPGMFIALSKNGKTKKGNRVSPTMKVTHFLPRL
B19: VEGF-A165 (ligand, UniProt P15692-4 27-191, looked up)
chain: APMAEGGGQNHHEVVKFMDVYQRSYCHPIETLVDIFQEYPDEIEYIFKPSCVPLMRCGGCCNDEGLECVPTEESNITMQIMRIKPHQGQHIGEMSFLQHNKCECRPKKDRARQENPCGPCSERRKHLFVQDPQTCKCSCKNTDSRCKARQLELNERTCRCDKPRR

How the values were obtained:
TNC III1-5 [1] = biological target: T1, TNC III1-5; assay: ELISA: cytokine coated (50 nM), 100 nM TNC III1-5 in solution, HRP-anti-His, A450; black bars without, white bars with 4 µM heparin
Protocol: (§1) ELISA plates were coated with cytokines or BSA and further incubated with TNC III1-5 to analyze binding of TNC III1-5 to a wide variety of cytokines. […] A large amount of heparin (4 μM) impaired binding of TNC III1-5 to these cytokines. Results are depicted in FIG. 3. Method: 50 nM of cytokine was coated for (1 hr, 37° C.). After blocking with 2% BSA (1 hr, RT). 100 nM TNC III1-5 was applied in PBST (0.05% tween, 0.1% bovine serum albumin (BSA)) (1 hr, RT). TNC III1-5 was detected with horseradish peroxidase (HRP)-anti-HIS in PBST (1 hr, RT) and developed with 3,3′,5,5′-tetramethylbenzidine (TMB), a soluble colorimetric HRP […]. Addition of sulfuric acid stop solution changes the color to yellow, enabling accurate measurement of the intensity at 450 nm using a spectrophotometer or plate reader. […] Heparin (4 μM) was added to TNC III1-5 to test the effect of blocking the heparin binding site of TNC III1-5, which has been defined as domain TNC III5 (Weber, Zimmermann, et al., 1995).

TNC III1-5 [2] = biological target: T1, TNC III1-5; assay: ELISA: cytokine coated (50 nM), 100 nM TNC III1-5 in solution, HRP-anti-His, A450
Protocol: as §1

PDGF-BB = biological target: T3, PDGF-BB (UniProt P01127 82-190); assay: ELISA: GST-fused TNC domains, GST and BSA coated, 2 nM PDGF-BB in solution, anti-PDGF-BB antibody and HRP secondary, A450
T3 construct: The name implies a homodimer of B chains
T3 sequence (P01127 82-190 limits assumed): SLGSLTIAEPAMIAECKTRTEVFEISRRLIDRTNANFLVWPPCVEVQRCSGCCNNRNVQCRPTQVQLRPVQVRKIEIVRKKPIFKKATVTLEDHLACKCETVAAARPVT
Protocol: An ELISA was performed to test the affinity of different domains present in TNC1-5 to PDGF-BB as an example cytokine that has shown to bind TNC III1-5. Domain TNC III5 was defined to be responsible for cytokine binding. Method: ELISA plates were coated with individual TNC domains fused to GST, as well as GST and BSA. Wells were blocked with BSA and then incubated with 2 nM PDGF-BB. Binding of PDGF-BB was detected using an anti-PDGF-BB antibody and then a secondary horseradish peroxidase conjugated antibody.

BSA = biological target: T4, BSA (bovine, UniProt P02769); assay: ELISA: BSA coated as control, Fg fragment in solution, A450 (methods analogous to Example 3)
T4 construct: negative control; also called bovine serum albumin
T4 sequence (P02769 25-607 limits assumed): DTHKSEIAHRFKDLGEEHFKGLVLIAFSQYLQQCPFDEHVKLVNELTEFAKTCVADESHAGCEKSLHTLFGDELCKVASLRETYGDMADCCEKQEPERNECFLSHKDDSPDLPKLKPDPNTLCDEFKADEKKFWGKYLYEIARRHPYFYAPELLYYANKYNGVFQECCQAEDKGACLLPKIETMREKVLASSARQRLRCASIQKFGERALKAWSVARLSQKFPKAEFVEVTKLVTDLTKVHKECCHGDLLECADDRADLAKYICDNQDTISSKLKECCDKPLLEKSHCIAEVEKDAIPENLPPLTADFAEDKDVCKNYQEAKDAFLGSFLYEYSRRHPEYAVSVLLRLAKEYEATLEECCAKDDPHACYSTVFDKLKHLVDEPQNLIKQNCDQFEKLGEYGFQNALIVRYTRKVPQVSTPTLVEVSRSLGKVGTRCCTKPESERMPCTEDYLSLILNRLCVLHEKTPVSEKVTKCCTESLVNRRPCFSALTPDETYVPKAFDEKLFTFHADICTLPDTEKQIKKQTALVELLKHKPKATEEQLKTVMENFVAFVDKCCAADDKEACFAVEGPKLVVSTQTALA
Protocol: as §1
(§2) ELISA plates were coated with cytokines or BSA and further incubated with Fg β15-66 to analyze binding of […] to a wide variety of cytokines. […] Results are depicted in FIG. 4. Method: The methods were analogous to those used in Example 3.

PlGF-1 = biological target: T2, PlGF-1; assay: ELISA: growth factor coated, Fg fragment in solution, A450 (methods analogous to Example 3)
Protocol: as §1, §2

TGF-β3 = biological target: B2; assay: as above
Protocol: as §1, §2

EGF = biological target: B11; assay: as above
Protocol: as §1, §2

FGF-6 = biological target: B15; assay: as above
Protocol: as §1, §2

Binder | binding result (TNC III1-5 [1]) | also measured
B1 | binds | 
B2 |  | binding result (TNC III1-5 [2]): no binding (tested: 100 nM)
B3 | binds | 
B4 | binds | 
B5 |  | binding result (PDGF-BB): binds
B6 | binds | 
B7 | binds | 
B8 | binds | 
B9 |  | binding result (PDGF-BB): no binding (tested: 2 nM PDGF-BB)
B10 | binds | 
B11 |  | binding result (TNC III1-5 [2]): no binding (tested: 100 nM)
B12 | binds | 
B13 | binds | 
B14 |  | binding result (PDGF-BB): binds
B15 | binds | 
B16 |  | binding result (BSA): no binding; binding result (PlGF-1): no binding; binding result (TGF-β3): no binding; binding result (EGF): no binding; binding result (FGF-6): no binding
B17 |  | binding result (TNC III1-5 [2]): no binding (tested: 100 nM)
B18 | binds | 
B19 | binds | 

Source: patent US20140011978A1 (EPFL TTO, published 2014)
